Results published in the supplement of paper PMC7877785.
± gives the uncertainty stated by the source.

Assay: self-splicing fitness, log relative to wild type (ln ratio); higher = more splicing; Tetrahymena group I intron in knt gene, E. coli kanamycin selection, DiMSum; sequences stand for … in CUCUCU…GGAGGGAAAAGUUAUCAGGCAUGCACCUGGUAGCUAGUCUUUAAACCAAUAGAUUGCAUCGGUUUAAAAGGCAAGACCGUCAAAUUGCGGGAAAGGGGUCAACAGCCGUUCAGUACCAAGUCUCAGGGGAAACUUUGAGAUGGCCUUGCAAAGGGUAUGGUAAUAAGCUGACGGACAUGGUCCUAACCACGCAGCCAAGUCCUAAGUCAACAGAUCUUCUGUUGAUAUGGAUGCAGUUCACAGACUAAAUGUCGGUCGGGGAAGAUGUAUUCUUCUCAUAAGAUAUAGUCGGACCUCUCCUUAAUGGGAGCUAGCGGAUGAAGUGAUGCAACACUGGAGCCGCUGGGAACUAAUUUGUAUGCGAAAGUAUAUUGAUUAGUUUUGGAGUACUCGUGGUCG
Method in brief: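 DiMSum derived fitness as the error-weighted combination of fold changes across replicates, kanamycin versus no kanamycin, normalised to wild type. E. coli BL21(DE3) held the library, which randomised all eight P1ex-region intron nucleotides within the knt kanamycin-resistance gene on pET-22b(+). Six replicate transformations grew overnight at 37°C or 30°C on LB agar with or without 25 μg/mL kanamycin, also containing 100 μg/mL carbenicillin, 50 μM IPTG and 0.2% rhamnose, and pooled colonies were amplicon-sequenced on an Illumina HiSeq 2500.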

Sequence	self-splicing fitness (ln) (30 °C)	self-splicing fitness (ln) (37 °C)
CCCGAGCAAUAUUACGCGAG	-5.08 ± 0.41	-2.46 ± 0.18
AGCUAGCAAUAUUACGGCUG	-0.696 ± 0.11	-0.185 ± 0.14
GGUGAGCAAUAUUACGUAGC	-2.64 ± 0.3	-1.27 ± 0.29
AUAAAGCAAUAUUACGAAAG	-2.01 ± 0.12	-1.25 ± 0.14
UAACAGCAAUAUUACGGAGG	-3.85 ± 0.16	-1.87 ± 0.091
UCGGAGCAAUAUUACGCAGC	-2.31 ± 0.5	
CCACAGCAAUAUUACGCGCG	-1.02 ± 0.042	-0.161 ± 0.056
AGAAAGCAAUAUUACGUUUA	-1.96 ± 0.13	-1.04 ± 0.11
UCCCAGCAAUAUUACGGCGG	-2.91 ± 0.16	-2.21 ± 0.18
GACUAGCAAUAUUACGUACC	-1.65 ± 0.15	-0.961 ± 0.14
AUCAAGCAAUAUUACGAUGC	-2.01 ± 0.19	-1.1 ± 0.23
UAACAGCAAUAUUACGUCAC	-2.97 ± 0.15	-1.82 ± 0.16
GGUAAGCAAUAUUACGGUGG	-2.82 ± 0.12	-3.18 ± 0.24
CGGCAGCAAUAUUACGAGGA	-4.01 ± 0.43	-2.28 ± 0.26
AUCAAGCAAUAUUACGGCCC	-0.747 ± 0.31	
AUGUAGCAAUAUUACGAACG	-1.27 ± 0.13	-0.894 ± 0.16
CAGAAGCAAUAUUACGAGAG	-2.78 ± 0.17	-1.98 ± 0.19
CGUUAGCAAUAUUACGGUCG	-1.03 ± 0.11	0.369 ± 0.12
GUCUAGCAAUAUUACGGAAU	-0.979 ± 0.11	0.135 ± 0.11
GGCCAGCAAUAUUACGAUGA	-3.07 ± 0.28	-2.03 ± 0.22

Sequence	self-splicing fitness (ln) (30 °C)	self-splicing fitness (ln) (37 °C)
CGGAAGCAAUAUUACGCACA	-1.07 ± 0.15	0.386 ± 0.16
GCGCAGCAAUAUUACGAGAU	-1.85 ± 0.089	-0.7 ± 0.11
CUAUAGCAAUAUUACGACUC		-1.31 ± 0.39
AGCCAGCAAUAUUACGUUUU	-3.78 ± 0.14	-2.06 ± 0.11
CAGAAGCAAUAUUACGAAGA	-3.8 ± 0.27	-2.85 ± 0.25
CAGUAGCAAUAUUACGAAGG	-1.25 ± 0.12	-1.8 ± 0.14
UAACAGCAAUAUUACGCUGA	-3.33 ± 0.2	-1.61 ± 0.1
UCUAAGCAAUAUUACGUUGC	-3.92 ± 0.34	-2.81 ± 0.29
GAUCAGCAAUAUUACGAGAG	-1.7 ± 0.082	-0.506 ± 0.082
GGAUAGCAAUAUUACGUGAA	-1.83 ± 0.07	-1.13 ± 0.081
UCCGAGCAAUAUUACGGACG	-3.59 ± 0.24	-2.37 ± 0.25
UGUAAGCAAUAUUACGUGGG	-3.6 ± 0.19	-2.42 ± 0.22
GUCCAGCAAUAUUACGUAAC	-0.291 ± 0.073	-0.649 ± 0.095
UCUCAGCAAUAUUACGUACC	-3.25 ± 0.46	-1.69 ± 0.25
GCCCAGCAAUAUUACGAGUC	-0.477 ± 0.039	-0.126 ± 0.059
CAUAAGCAAUAUUACGAAUA	-1.84 ± 0.24	-2.9 ± 0.43
UGAUAGCAAUAUUACGUCUG	-0.116 ± 0.085	0.318 ± 0.1
CCUAAGCAAUAUUACGUUUU	-3.89 ± 0.18	-1.3 ± 0.13
CUAGAGCAAUAUUACGUGGA	-3.21 ± 0.19	-1.68 ± 0.18
